T1: Yhr016c SH3 (YSC84_YEAST), P32793
T1 chain: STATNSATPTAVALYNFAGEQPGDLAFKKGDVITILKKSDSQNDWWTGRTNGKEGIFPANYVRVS

T2: Boi1 SH3 (BOI1_YEAST), P38041
T2 chain: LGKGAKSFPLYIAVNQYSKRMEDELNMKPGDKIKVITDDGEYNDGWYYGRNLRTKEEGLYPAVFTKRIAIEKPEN

T3: Abp1 SH3 (ABP1_YEAST), P15891
T3 chain: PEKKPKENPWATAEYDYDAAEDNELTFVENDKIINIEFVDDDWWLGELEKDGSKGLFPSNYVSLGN

T4: Rvs167 SH3 (RV167_YEAST), P39743
T4 chain: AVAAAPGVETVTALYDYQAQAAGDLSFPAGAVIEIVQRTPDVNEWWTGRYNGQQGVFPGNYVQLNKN

T5: Boi2 SH3 (BOI2_YEAST), P39969
T5 chain: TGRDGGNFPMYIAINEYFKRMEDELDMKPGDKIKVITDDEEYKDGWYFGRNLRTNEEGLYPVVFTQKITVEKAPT

T6: Yfr024 SH3 (LSB3_YEAST), P43603
T6 chain: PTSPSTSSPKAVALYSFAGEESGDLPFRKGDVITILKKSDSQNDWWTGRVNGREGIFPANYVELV

B1: Q0297 11-24 (peptide)
chain: MVRPAPPRRADPEG
B2: YJL201W 440-453 (peptide)
chain: NAKPPLPIKAVTRP
B3: YDR421W 532-545 (peptide)
chain: NHIPPFPLRFSFAQ
B4: YGR076C 38-51 (peptide)
chain: NANPFLPNKHPVTQ
B5: YBR114W 165-178 (peptide)
chain: NAPPYVPQRSKQPD
B6: YDL064W 66-79 (peptide)
chain: NEYPSKPPKVKFPA
B7: YKL101W 777-790 (peptide)
chain: NEGPEYPTKIEKNQ
B8: YMR179W 373-386 (peptide)
chain: NINPKQPPKTSGEK
B9: YCL063W 147-160 (peptide)
chain: MVTPSKPPKKSVGF
B10: YHR164C 1037-1050 (peptide)
chain: NDDPVIPYKLSKDT
B11: YPR052C 1-14 (peptide)
chain: MVTPREPKKRTTRK
B12: YOR195W 2-15 (peptide)
chain: NEVPTTPVRLILGQ
B13: YNR017W 123-136 (peptide)
chain: NIPPNSPGKLQLNT
B14: YFL036W 764-777 (peptide)
chain: MVLPPAPPKNSDPS
B15: YLR179C 77-90 (peptide)
chain: MTDPDAPSRTEHKW
B16: YLR178C 93-106 (peptide)
chain: MTDPDAPSKTDHKW
B17: YDL007W 329-341 (peptide)
chain: NKIETLDPALIRP
B18: YGL143C 142-154 (peptide)
chain: NKLLPPHPFADKP
B19: YMR255W 67-79 (peptide)
chain: NKIKETLPREKKP
B20: YML035C 220-233 (peptide)
chain: NKPGWVVYPPPPKP
B21: YMR104C 326-338 (peptide)
chain: NITVDYKPSKNKP
B22: YIL053W 16-28 (peptide)
chain: NIQTIAMPLTTKP
B23: YKL126W 329-341 (peptide)
chain: NISIDYKPSRNKP

Target: T1, Yhr016c SH3 (YSC84_YEAST), P32793
Experiment: SPOT array

Binder | normalised SPOT signal, Boehringer light units (BLU); mean over the file's lines of this peptide
B1 | 7790
B2 | 288
B3 | 2580
B4 | 352
B5 | 8020
B6 | 54.8
B7 | 109
B8 | 225
B9 | 361
B10 | 233
B11 | 768
B12 | 2090
B13 | 77.6
B14 | 273
B15 | 239
B16 | 109

Target: T2, Boi1 SH3 (BOI1_YEAST), P38041
Experiment: SPOT array

Binder | normalised SPOT signal, Boehringer light units (BLU); mean over the file's lines of this peptide
B1 | 3640
B2 | 2020
B3 | 119
B4 | 28.5
B5 | 558
B6 | 66.8
B7 | 125
B8 | 24.7
B9 | 149
B10 | 92.9
B11 | 187
B12 | 76.1
B13 | 37.5
B14 | 54
B15 | 124
B16 | -0

Target: T3, Abp1 SH3 (ABP1_YEAST), P15891
Experiment: SPOT array

Binder | normalised SPOT signal, Boehringer light units (BLU); mean over the file's lines of this peptide
B17 | 270
B18 | 69.9
B19 | 179
B20 | 180
B21 | 108
B22 | 111
B23 | 181

Target: T4, Rvs167 SH3 (RV167_YEAST), P39743
Experiment: SPOT array

Binder | normalised SPOT signal, Boehringer light units (BLU); mean over the file's lines of this peptide
B1 | 14400
B2 | 32.9
B3 | 106
B4 | 81.9
B5 | 14300
B6 | 60.2
B7 | 20.8
B8 | 9.7
B9 | 114
B10 | 54.5
B11 | 163
B12 | 48.6
B13 | 0
B14 | 79.6
B15 | 23
B16 | 32.5

Target: T5, Boi2 SH3 (BOI2_YEAST), P39969
Experiment: SPOT array

Binder | normalised SPOT signal, Boehringer light units (BLU); mean over the file's lines of this peptide
B1 | 1310
B2 | 48.5
B3 | 35.5
B4 | 54
B5 | 200
B6 | 54.4
B7 | 33.6
B8 | 5.7
B9 | 85.1
B10 | 44.3
B11 | 88.4
B12 | 34.2
B13 | 93.6
B14 | 34.7
B15 | 34.4
B16 | 34.4

Target: T6, Yfr024 SH3 (LSB3_YEAST), P43603
Experiment: SPOT array

Binder | normalised SPOT signal, Boehringer light units (BLU); mean over the file's lines of this peptide
B1 | 18800
B2 | 1870
B3 | 6920
B4 | 1430
B5 | 11800
B6 | 415
B7 | 127
B8 | 207
B9 | 2650
B10 | 198
B11 | 620
B12 | 2530
B13 | 84.4
B14 | 892
B15 | 122
B16 | 56.6
